# The nanobody polyreactivity screen of Harvey et al. (2022)
# Assay: yeast display, Sf9 membrane polyspecificity reagent, FACS + sequencing; frameworks hold sequencing errors
# Outline: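 Nanobodies from a synthetic yeast display library (Saccharomyces cerevisiae BJ5465), induced 36–48 hours with galactose, were stained 1 hour at 4 °C with 10% biotinylated, detergent-solubilized Sf9 membrane reagent, enriched on streptavidin microbeads, then FACS-sorted. Anti-HA (expression) and streptavidin (reagent binding) fluorescence set low and high (top ~1%) gates. Polyreactivity labels come from the gate of origin. Genes were colony-PCR amplified, MiSeq 2 × 250 sequenced and filtered by CDR length.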
row,Sequence,polyreactivity (PSR sort gate)
1,QVQLVESAGGLVQAGGRLRLSCAASGFIFTTNAMGWYRQAPGKEREFVAAITRSGGSTYADSVKGRFTISRDNAKNTVYLQMNSLKPEDTAVYYFNADWAGVDTSYEYDYWGQGTQVTVSS,low polyreactivity
2,QVQLVESAGGLVQAGGRLSLICAASGYTFYYHAMGWYRQAPGKERELVASIRSRGRSTYYADSVKGRFTISRDNAKNTVYLQMNSLKPEDTAVYYCAALPNKPAVYAYDYWGQGTQVTVSS,low polyreactivity
3,QVQLVESAGGLVQAGGSLLLSCAASGSTFGTYAMGWYRQAPGKERELVAAISTGGSTYYADSVKGRFTISRDNAKNTVYLQMNSLKPEDTAVYYCAALAEYVRRASDYWGQGTQVTVSS,low polyreactivity
4,QVQLVESAGGLVQAGGSLRITCAASASTYSWYTMGWYREAPGKERELVASINYSGTNTYYADSVKGRFTISRDNAKNTVYLQMNSLNPEDTAVYYCAARPRTKLTAYNYCGQGTQVTVSS,high polyreactivity
5,QVQLVESAGGLVQAGGSLRLICAASGLIFYRNTMGWYRQAPGKERELVAAISVSGGSTNYADSVKGRFTISRDNAKNTVYLQMNILKPEDTAVYFCATRVNYGYYYWGQGTQVTVSS,high polyreactivity
6,QVQLVESAGGLVQAGGSLRLICAASGRIFGGNTRGWYREAPGKERELGASIRSRGGRTNYADSLNGRFTISRDTAKNTVYLQMNSLQPEDTSVYYCDATQIYRFDYWGQGTQVTVSS,low polyreactivity
7,QVQLVESAGGLVQAGGSLRLICAATGRIYEIYAMGWYRQAPGTERELVATIDSGGSTNYADSVKGRFTISRDNAKNTVYLQMNSLQPEDTAVYYCAGGNPFYDSIGYDYWGQGTQVTVSS,low polyreactivity
8,QVQLVESAGGLVQAGGSLRLSCAASGFIFDVYAMGWYRQAPGKERELVAAISVSSTNYADSVKGRFTISRDNAKNTVYLQMNSLKPEDTAVYYCAADTYTYFLASYLYGQYDYWGQGTQVTVSS,low polyreactivity
9,QVQLVESAGGLVQAGGSLRLSCAASGFIFPRYAMGWYRQAPGKERELVAAISYSGGSTYYADSVKGRFTISRDNAKNTVYLQMNSLKPEDTAVYYCNAYFLSQYQRAYRDDYWGQGTQVTVSS,high polyreactivity
10,QVQLVESAGGLVQAGGSLRLSCAASGFTFVYYVMGWYRQAPGKERELVAAINAGGGSTYYADSVKGRFTISRDNAKNTVYLQMNSLIPEDTAVYYCIARVRVRLGRNWSSYYDWGQCTQVTVSS,high polyreactivity
11,QVQLVESAGGLVQAGGSLRLSCAASGIIFVENAMGWYRQAPGKERELVAAISWDGGSTYYADSVKGRFTISRDNAKNTVYLQMNSLNPEDTAVYYCAADLTISYSQEYYYWGQGTQVTVSS,low polyreactivity
12,QVQLVESAGGLVQAGGSLRLSCAASGLIFAVYAKGLYRQAPGKEREFLAAITGTGSSTYYADSVKGRFTISRDNAKNTVYLQMNSLKPEDTAVYYCNAYVYDWIPYYHIDHDYWGQGTQVTVSS,low polyreactivity
13,QVQLVESAGGLVQAGGSLRLSCAASGLIFEYNAMGWYRQAPGKERELVAAITTNGGSTYYADSVKGRFTISRDNAKNTVYLQINSLKPEDTAVYYCAALGLHQVIEYDYWGQGTQVTVSS,low polyreactivity
14,QVQLVESAGGLVQAGGSLRLSCAASGRIFPRYAMGWYRQAPGKERELVAAINTSGGRTYYADSVKGRFTISRDYAKNTVYLQMNSLKPEDTAVYFCAADYRSRYDYWGQGTQVTVSS,high polyreactivity
15,QVQLVESAGGLVQAGGSLRLSCAASGRIFTNNAMGWYRQAPGKERELVAAISRSGGRTYYADTVKGRFTISRDNAKNTVYVQMNSLKPEDTAVSYCAALGPYGSARRKYGYWGQGTQVTVSS,high polyreactivity
16,QVQLVESAGGLVQAGGSLRLSCAASGRIFWDYAMGWYRQAPGKERELVATITQNDGSTYYADSVKGRFTISRDNAKNTVYLQMNSLKPEDTAVYYCAAYLLGWFTIKYDYGGQGTQVTVSS,low polyreactivity
17,QVQLVESAGGLVQAGGSLRLSCAASGRTFDAYAMGWYRQAPGKERELVATITSGGGTYYADSVKGRFTISRDNAKNTVYLLMNSLTPEDTAVYYCNKRYVVSRKYDYWGQGTQVTVSS,low polyreactivity
